Data on seven molecules can be found in patent US8859492.

Where no end group is shown, it is not given here. [ ]: non-standard residue; d: D form. Cha = N[C@@H](CC1CCCCC1)C(=O)O

Data set [1] has as its target T1, S. aureus sortase A (S. aureus), Q2FV99.
T1 chain: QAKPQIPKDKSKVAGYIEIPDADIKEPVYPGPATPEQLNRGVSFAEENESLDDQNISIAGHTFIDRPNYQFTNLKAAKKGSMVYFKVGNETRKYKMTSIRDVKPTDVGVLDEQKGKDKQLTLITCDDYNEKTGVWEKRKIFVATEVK
The experiment in a line: cell-based or functional assay.

Data set [2] concerns the target HCV protease (hepatitis C virus). The experiment in a line: cell-based or functional assay.
The target is the same in data set [3]. The experiment in a line: apparent binding affinity; method not described.
For data set [4] the target is unchanged. The experiment in a line: binding/inhibition curve of FIG. 1 (left); method not described.
For another data set, the target named is T2, Co-GGH-lisinopril.
T2 chain: GGH

Another data set has as its target T3, Cu-GGH-lisinopril.
T3 chain: GGH

Another data set concerns the target T4, Ni-GGH-lisinopril (not fully specified).
T4 chain: GGH

In a further data set the target is T5, [Cu-GGH]^1-.
T5 chain: GGH

On to GGHGLPETG (modifications not checked) [Cu-… (SEQ ID NO: 105)], for which, in data set [1], the activity for catalyst concentration of 1 µM amounted to 0.012.
In data set [1], GGHLPETG (modifications not checked) [Cu-GGHLPETG (SEQ ID NO: 103)] came in with an activity for catalyst concentration of 1 µM of 0.017.
As to GGHGD[dE]LI[Cha]T (also: Cu complex) [Cu-GGHGDeLI(Cha)T], the kinact in data set [2] was 0.042 min⁻¹. For the same molecule, in data set [3], the Ka was found to be 33000 M⁻¹.
Turning to GGHGLPET (modifications not checked) [Cu-GGHGLPET (SEQ ID NO: 104)], in data set [1], the activity for catalyst concentration of 1 µM came out at 0.027.
Turning to GGHLPET (modifications not checked) [Cu-GGHLPET (SEQ ID NO: 102)], in data set [1], the activity for catalyst concentration of 1 µM was determined as 0.009.
For the molecule GGHGD[dE]LI[Cha]C-OH (also: Cu complex) [Cu-GGHGDeLI(Cha)C-CO2^-], in data set [2], the kinact worked out at 0.0014 min⁻¹ and the rate constant for inactivation kinact, in the presence of ascorbate/O2 was less than 0.083 h⁻¹. Also, in data set [3], the Ka turned out to be 2e+06 M⁻¹. The molecule also yielded a Ki in data set [4] of 500 nM.

B1: Recombinant human somatic ACE (sACE-1: Leu30-Leu1261, with C-terminal His tag) (protein)
chain: LDPGLQPGNFSADEAGAQLFAQSYNSSAEQVLFQSVAASWAHDTNITAENARRQEEAALLSQEFAEAWGQKAKELYEPIWQNFTDPQLRRIIGAVRTLGSANLPLAKRQQYNALLSNMSRIYSTAKVCLPNKTATCWSLDPDLTNILASSRSYAMLLFAWEGWHNAAGIPLKPLYEDFTALSNEAYKQDGFTDTGAYWRSWYNSPTFEDDLEHLYQQLEPLYLNLHAFVRRALHRRYGDRYINLRGPIPAHLLGDMWAQSWENIYDMVVPFPDKPNLDVTSTMLQQGWNATHMFRVAEEFFTSLELSPMPPEFWEGSMLEKPADGREVVCHASAWDFYNRKDFRIKQCTRVTMDQLSTVHHEMGHIQYYLQYKDLPVSLRRGANPGFHEAIGDVLALSVSTPEHLHKIGLLDRVTNDTESDINYLLKMALEKIAFLPFGYLVDQWRWGVFSGRTPPSRYNFDWWYLRTKYQGICPPVTRNETHFDAGAKFHVPNVTPYIRYFVSFVLQFQFHEALCKEAGYEGPLHQCDIYRSTKAGAKLRKVLQAGSSRPWQEVLKDMVGLDALDAQPLLKYFQPVTQWLQEQNQQNGEVLGWPEYQWHPPLPDNYPEGIDLVTDEAEASKFVEEYDRTSQVVWNEYAEANWNYNTNITTETSKILLQKNMQIANHTLKYGTQARKFDVNQLQNTTIKRIIKKVQDLERAALPAQELEEYNKILLDMETTYSVATVCHPNGSCLQLEPDLTNVMATSRKYEDLLWAWEGWRDKAGRAILQFYPKYVELINQAARLNGYVDAGDSWRSMYETPSLEQDLERLFQELQPLYLNLHAYVRRALHRHYGAQHINLEGPIPAHLLGNMWAQTWSNIYDLVVPFPSAPSMDTTEAMLKQGWTPRRMFKEADDFFTSLGLLPVPPEFWNKSMLEKPTDGREVVCHASAWDFYNGKDFRIKQCTTVNLEDLVVAHHEMGHIQYFMQYKDLPVALREGANPGFHEAIGDVLALSVSTPKHLHSLNLLSSEGGSDEHDINFLMKMALDKIAFIPFSYLVDQWRWRVFDGSITKENYNQEWWSLRLKYQGLCPPVPRTQGDFDPGAKFHIPSSVPYIRYFVSFIIQFQFHEALCQAAGHTGPLHKCDIYQSKEAGQRLATAMKLGFSRPWPEAMQLITGQPNMSASAMLSYFKPLLDWLRTENELHGEKLGWPQYNWTPNSARSEGPLPDSGRVSFLGLDLDAQQARVGQWL
Take B1: the second order rate constant for cleavage of full length sACE-1 (SDS-PAGE), ascorbate + H2O2 in the data set with Co-GGH-lisinopril was less than 1170 M⁻¹ s⁻¹; with Cu-GGH-lisinopril, 1170 M⁻¹ s⁻¹; in data set [Cu-GGH]^1-, less than 50 M⁻¹ s⁻¹. Also, the second order rate constant for cleavage of full length sACE-1 (SDS-PAGE), H2O2 in the data set with Cu-GGH-lisinopril worked out at 250 M⁻¹ s⁻¹. Moreover, the second order rate constant for cleavage of full length sACE-1 (SDS-PAGE), ascorbate with Cu-GGH-lisinopril is less than 100 M⁻¹ s⁻¹; in the data set with Ni-GGH-lisinopril, less than 1000 M⁻¹ s⁻¹.

Usually kinact stands for the maximal first-order rate at which the target is inactivated. By Ki is commonly meant the equilibrium dissociation constant of an inhibitor or competing ligand from its target. Higher therefore signals weaker binding.
